We go through 6 substances from EP2042517A1.

Test [1] concerns the target FcγRIIIa on human PBMCs, homozygous F158/F158 (human) (UniProt P08637). The test is described as follows: cell-based or functional assay.
The target of test [2] is FcγRIIIa on human PBMCs, heterozygous V158/F158 (human) (UniProt P08637). The test is described as follows: cell-based or functional assay.
In test [3] the target is His-tagged V158 FcγRIIIa (human) (UniProt P08637). As to the kind of experiment: SPR, His-tagged receptor immobilized, antibody flowed.
The target in test [4] is F158 FcγRIIIa used in SPR (human) (UniProt P08637). The test is described as follows: SPR.
Test [5] deals with human V158 FcγRIIIa extracellular region fused with GST (human) (UniProt P08637). As to the kind of experiment: AlphaScreen competition.

In test [1], wild-type rituximab (antibody) registered an ADCC EC50 (WIL2-S target cells, human PBMCs) of 1.7 ng/mL. In test [2], alemtuzumab V264I/I332E (antibody) registered an ADCC EC50 (DoHH-2 target cells, human PBMCs) of 4 ng/mL. With wild-type alemtuzumab (antibody), the results for the Kd in test [3] and in test [4] were 68 nM and 730 nM, respectively. The ADCC EC50 (DoHH-2 target cells, human PBMCs) in test [2] worked out at 9.9 ng/mL. Turning to alemtuzumab S239D/I332E (antibody), the ADCC EC50 (DoHH-2 target cells, human PBMCs) in test [2] is 3 ng/mL.

The substance alemtuzumab A298H (antibody) returned a Fold vs WT in test [5] of 0.27 fold. Still for that read-out and setting: in the case of “alemtuzumab V264I/N297D/I332E (antibody)” it was 0.05 fold.
